Experimental data as given in the supplement of paper PMC10567573.

B1: RIPK4 (parent)
chain: RERMELLEEAKKMEMAKFRYILPV

Variants of: B1
Assay: protein stability index of a GFP-peptide fusion (GPS, HEK-293T) (PSI 1-6); higher = more stable
Conditions: c terminus: a fixed tail appended
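Note: lentivirally expressed fusions sorted by FACS into six bins by GFP to DsRed ratio, PSI derived from sequencing read proportions per bin multiplied by bin number.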

Protein stability index of substitutions, site by site:
M15: P 4.15; H 4.28; Q 3.34; F 3.91; R 3.97; G 3.59; Y 3.41
Y20: D 2.55; Q 2.34; F 2.27; C 2.67; S 3.91
R19: E 3.28; T 2.67; S 2.86; A 1.96; C 2.51; D 3.47; H 2.6; I 1.27
I21: G 3.68; R 3.2
E8: Y 2.62; Q 2.03; N 2.04; K 3.42; T 3.16; S 3.06; L 2.11; R 3.5; G 2.27
V24: K 3.58; E 4.32; F 3.16; M 3.68; H 3.24; S 3.7
A10: D 3.99; C 4.69; Q 3.79; T 2.81; F 3.48; R 3.66; S 3.69; L 3.33; V 4.15; M 3.32; I 2.82
P23: M 2; S 3.96; Q 1.69; V 2.29; C 3.02; H 2.9; D 2.03
L22: W 2.53; P 4.95; M 3.57
M13: T 3.06; S 3.51; L 3.37; W 3.14; Q 3.31; K 3.84; N 3.8; H 3.13; F 3.01; V 2.85
E5: G 2.6; M 3.12; S 2.11; T 2.34; Y 2.29; L 2.75; P 3.01; H 1.99; F 2.81
E2: L 2.57; H 2.75; G 2.57; W 1.47; I 1.93; P 3.75; V 2.81
E14: I 2.16; F 1.86; V 1.71; G 2.44; N 2.79; T 2.65; P 3.29
F18: T 3.81; P 3.86; E 3.55; Q 3.61
L6: I 3.98; H 3.87; M 3.77; A 3.19; S 3.19; G 3.54
R1: T 3.13; C 2.88; M 3.98; K 4.16; Q 3.9; N 4.13
A16: Y 3.32; F 2.29; P 3.49; N 4.29
K11: V 2.32; Y 1.08; L 4.66; M 2.45; D 4.09; C 2.24; I 2.39; R 2.81
L7: F 3.4; N 3.54; D 3.43; T 4.19; C 3.94
K17: G 2.94; Y 2.8; F 1.26; L 2.04; D 2.84; C 2.01; M 3.5
E9: H 2.8; Q 3.31; T 2.93; A 2.85; G 3.79; R 2.4; N 3.44; Y 2.49
K12: I 2.37; M 2.78; G 2.36; Y 2.42; E 3.46; V 2.82; F 2.5; D 3.3; N 3.23; T 2.9
M4: V 2.88; A 3.99; S 3.59; E 3.67; P 3.8; K 3.74; G 5.3; T 3.53; Y 2.82; W 2.81
R3: P 3.84; T 3.68; Y 3.25; M 2.7; L 2.3; I 2.39; N 3.18; F 2.58
